Results published in patent US6447783 (YEDA RESEARCH AND DEVELOPMENT, dated 2002).

Legend:
[1] = biological target: T1, Recombinant mouse FGF9 (fibroblast growth factor 9) (mouse); experiment: 125I-FGF9 binding to FGFR3 transfected CHO 745 cells at 4 C, in the presence of 1 mg/ml heparin
[2] = biological target: T1, Recombinant mouse FGF9 (fibroblast …); experiment: 125I-FGF9 binding to FGFR3 transfected CHO-KI cells at 4 C, in the presence of 1 mg/ml heparin
[3] = biological target: T1, Recombinant mouse FGF9 (fibroblast …); experiment: FGF9 immobilised on heparin-sepharose, bound receptor-AP measured by alkaline phosphatase activity

Row | Binder | Kd [1] [nM] | Kd [2] [nM] | binding result [3]
1 | Full length mouse FGFR3 expressed in CHO cells (wild type KI and heparan-sulfate deficient 745) (receptor, whole, on cells; also called FGFR3 transfected CHO-KI cells) EPPGPEQRVVRRAAEVPGPEPSQQEQVAFGSGDTVELSCHPPGGAPTGPTVWAKDGTGLVASHRILVGPQRLQVLNASHEDAGVYSCQHRLTRRVLCHFSVRVTDAPSSGDDEDGEDVAEDTGAPYWTRPERMDKKLLAVPAANTVRFRCPAAGNPTPSISWLKNGKEFRGEHRIGGIKLRHQQWSLVMESVVPSDRGNYTCVVENKFGSIRQTYTLDVLERSPHRPILQAGLPANQTAILGSDVEFHCKVYSDAQPHIQWLKHVEVNGSKVGPDGTPYVTVLKTAGANTTDKELEVLSLHNVTFEDAGEYTCLAGNSIGFSHHSAWLVVLPAEEELMETDEAGSVYAGVLSYGVVFFLFILVVAAVILCRLRSPPKKGLGSPTVHKVSRFPLKRQVSLESNSSMNSNTPLVRIARLSSGEGPVLANVSELELPADPKWELSRTRLTLGKPLGEGCFGQVVMAEAIGIDKDRTAKPVTVAVKMLKDDATDKDLSDLVSEMEMMKMIGKHKNIINLLGACTQGGPLYVLVEYAAKGNLREFLRARRPPGMDYSFDACRLPEEQLTCKDLVSCAYQVARGMEYLASQKCIHRDLAARNVLVTEDNVMKIADFGLARDVHNLDYYKKTTNGRLPVKWMAPEALFDRVYTHQSDVWSFGVLLWEIFTPGGPSPYPGIPVEELFKLLKEGHRMDKPASCTHDLYMIMRECWHAVPSQRPTFKQLVEDLDRILTVTSTDEYLDLSVPFEQYSPGGQDTPSSSSSGDDSVFTHDLLPPGPPSNGGPRT | 0.1 | 0.06 | 
2 | Soluble extracellular domain of murine FGFR1 coupled to human placental alkaline phosphatase (receptor, extracellular domain; Collected from conditioned medium of transfected NIH 3T3 cells; also called FGFR1 fusion protein; FGFR-alkaline phosphatase fusion protein; not shown: human placental alkaline phosphatase) RPAPTLPEQAQPWGVPVEVESLLVHPGDLLQLRCRLRDDVQSINWLRDGVQLVESNRTRITGEEVEVRDSIPADSGLYACVTSSPSGSDTTYFSVNVSDALPSSEDDDDDDDSSSEEKETDNTKPNRRPVAPYWTSPEKMEKKLHAVPAAKTVKFKCPSSGTPNPTLRWLKNGKEFKPDHRIGGYKVRYATWSIIMDSVVPSDKGNYTCIVENEYGSINHTYQLDVVERSPHRPILQAGLPANKTVALGSNVEFMCKVYSDPQPHIQWLKHIEVNGSKIGPDNLPYVQILKTAGVNTTDKEMEVLHLRNVSFEDAGEYTCLAGNSIGLSHHSAWLTVLEALEERPAVMTSPLYLE |  |  | no binding
